According to patent US20160194380A1 (Merck KGaA, published 2016):
Where no end group is shown, it is not given here.

T1: Human matriptase-1 (human, UniProt Q9Y5Y6 596-855, limits assumed)
T1 construct: also called MTSP1
T1 sequence (looked up): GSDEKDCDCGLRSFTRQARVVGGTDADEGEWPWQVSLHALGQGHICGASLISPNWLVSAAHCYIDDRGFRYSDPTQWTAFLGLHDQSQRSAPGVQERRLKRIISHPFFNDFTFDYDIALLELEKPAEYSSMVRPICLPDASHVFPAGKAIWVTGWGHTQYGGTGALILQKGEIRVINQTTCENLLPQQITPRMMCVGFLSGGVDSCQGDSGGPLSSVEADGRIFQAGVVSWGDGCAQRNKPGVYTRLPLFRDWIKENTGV

B1: SOTI-III wt (inhibitor 1) (peptide, UniProt P84781 1-37, looked up)
peptide: EDKCSPSGAICSGFGPPEQCCSGACVPHPILRIFVCQ
modifications: disulfide (positions not given here); also: oxidatively folded, disulfide places not given here
notes: Made by Fmoc-SPPS and oxidative folding; also called 1 (SOTI-III wt); SOTI-III wild type 1
B2: MCoTI-II wt (inhibitor 3) (peptide, UniProt P82409 5-34, looked up)
peptide: GGVCPKILKKCRRDSDCPGACICRGNGYCG
modifications: disulfide (positions not given here); also: oxidatively folded, disulfide places not given here
notes: Open-chain (acyclic) form, chemically synthesised and oxidatively folded; also called 3 (MCoTI-II wt); MCoTI-wt 3

Tests used:
[1] = molecular target: T2, Bovine pancreatic trypsin (bovine, UniProt P00760 24-246); assay: protease inhibition assay, substrate-independent Ki from Morrison fit
T2 construct: Bought
Procedure: (§1) D: Biol. Crystallogr., 69(2013), 114-120; Reinwarth, ChemBioChem, 14(2013), 137-146; Boy, Mol. Imaging Biol. 12(2010), 377-385] Measurements were carried out in triplicates using a Tecan Genios ELISA reader. The normalized residual proteolytic activity (v/v0) of proteases was determined using substrates Boc-QAR-pNA (250 μM), Boc-QAR-AMC (250 μM) or Spectrozym tPA (250 μM). Product formation was monitored after preincubation (30 min, RT) with inhibitor at different concentrations over 30 min by measuring the absorbance at 405 nm or the fluorescence emission (ex. 360 nm, em. 465 nm), respectively. Selectivity data were carried out in duplicates with final protease concentrations of uPA and thrombin of 5 nM. In case of hepsin 50 mM Tris/HCl pH 9.0 was used as assay buffer. Apparent inhibition constants (Kᵢ^app) were calculated by fitting the Morrison equation (1) for tight-binding inhibitors to the relative reaction velocity using non-linear regression (Marquardt-Levenberg algorithm, SigmaPlot 11).
(§2) Substrate-independent inhibition constants Ki were calculated from Ki^app and Km of the enzyme according to (2). The Michaelis-Menten constant Km for the substrates and proteases were determined previously.

Human matriptase-1 = molecular target: T1, Human matriptase-1; assay: as above
Procedure: as §1, §2

T2 sequence (P00760 24-246): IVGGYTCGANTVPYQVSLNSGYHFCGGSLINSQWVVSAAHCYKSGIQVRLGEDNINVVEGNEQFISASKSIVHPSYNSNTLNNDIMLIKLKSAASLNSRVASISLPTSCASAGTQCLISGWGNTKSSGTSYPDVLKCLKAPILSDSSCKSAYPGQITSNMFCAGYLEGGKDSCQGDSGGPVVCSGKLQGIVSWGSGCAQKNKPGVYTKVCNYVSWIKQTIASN

Binder	Ki [1]	Ki (Human matriptase-1)
B1	0.0606 µM	–
B2	0.00237 µM	0.0807 µM
